The text below walks through data of PMC9402430, “Cryo-EM structure of an active bacterial TIR–STING filament complex” (Nature, 2022).

Data set [1] deals with T1, SfSTING (Sphingobacterium faecium TIR–STING) (Sphingobacterium faecium, UniProt A0A2T5Y4G4).
T1 construct: gene cap12; full-length TIR-STING; N-terminal 6xHis fusion, modified pET16, E. coli BL21-CodonPlus(DE3)-RIL; homodimer forming filaments
T1 sequence (A0A2T5Y4G4 1-323): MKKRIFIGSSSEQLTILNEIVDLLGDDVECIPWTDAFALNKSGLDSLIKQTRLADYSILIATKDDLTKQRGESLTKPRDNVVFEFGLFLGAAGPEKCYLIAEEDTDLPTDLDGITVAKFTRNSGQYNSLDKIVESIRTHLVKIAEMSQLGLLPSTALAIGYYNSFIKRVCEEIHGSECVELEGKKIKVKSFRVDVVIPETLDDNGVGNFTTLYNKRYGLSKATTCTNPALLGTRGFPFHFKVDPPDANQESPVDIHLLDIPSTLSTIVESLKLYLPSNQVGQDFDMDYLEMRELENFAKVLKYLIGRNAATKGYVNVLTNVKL
As to the kind of experiment: cryo-EM structure; EMSA. Particulars: 3x molar c-di-GMP (84 uM); STING CDN-binding pocket at dimer interface; activating ligand. (A gel shift assay detects complexes by their altered migration in electrophoresis.)

In data set [2] the target is T1, SfSTING (Sphingobacterium faecium TIR–STING). As to the kind of experiment: fluorescence NADase assay. It is filed as biochemical. Particulars: 500 uM substrate; 20 uM c-di-GMP activator; 20 mM HEPES-KOH pH 7.5, 100 mM KCl.
Data set [3] concerns the molecule itself. As to the kind of experiment: cryo-EM structure; SfSTING 1 mg/ml rapidly mixed with 3× molar 3′,3′-cGAMP (84 μM), a weakly activating ligand; dimers to short oligomers.
Data set [4] concerns the molecule itself. Briefly: cryo-EM structure; SfSTING 1 mg/ml rapidly mixed with 3× molar c-di-GMP (84 μM), frozen within 10 s, 4 °C; second dataset pre-incubated with 1 mM benzamide adenine dinucleotide; dimers to filament (single and antiparallel double filaments).
Data set [5] deals with the molecule itself. Briefly: negative-stain EM; 1 μM wild-type or mutant SfSTING with 10 μM c-di-GMP, 20 mM HEPES-KOH pH 7.5, 250 mM KCl, 1 mM TCEP, 15 min on ice; dimers to filament.

With `Nc1nc2c(ncn2[C@@H]2O[C@@H]3COP(=O)(O)O[C@H]4[C@@H](O)[C@H](n5cnc6c(=O)[nH]c(N)nc65)O[C@@H]4COP(=O)(O)O[C@H]3[C@H]2O)c(=O)[nH]1` [c-di-GMP], in data set [1], the “cryo-EM structure; EMSA” value is on record as “cryo-EM density map of the active SfSTING–c-di-GMP filament complex”.
Consider `NC(=O)c1ccc[n+]([C@@H]2O[C@H](COP(=O)(O)OP(=O)(O)OC[C@H]3O[C@@H](n4cnc5c4ncn4ccnc54)[C@H](O)[C@@H]3O)[C@@H](O)[C@H]2O)c1` [nicotinamide 1,N^6-ethenoadenine dinucleotide], for which the “fluorescence NADase assay” value in data set [2] is “WT* and E95Q* mutant SfSTING consume the ε-NAD substrate within the deadtime”.

B1: Sphingobacterium faecium TIR–STING (SfSTING), wild type (enzyme, UniProt A0A2T5Y4G4 1-323, looked up)
chain: MKKRIFIGSSSEQLTILNEIVDLLGDDVECIPWTDAFALNKSGLDSLIKQTRLADYSILIATKDDLTKQRGESLTKPRDNVVFEFGLFLGAAGPEKCYLIAEEDTDLPTDLDGITVAKFTRNSGQYNSLDKIVESIRTHLVKIAEMSQLGLLPSTALAIGYYNSFIKRVCEEIHGSECVELEGKKIKVKSFRVDVVIPETLDDNGVGNFTTLYNKRYGLSKATTCTNPALLGTRGFPFHFKVDPPDANQESPVDIHLLDIPSTLSTIVESLKLYLPSNQVGQDFDMDYLEMRELENFAKVLKYLIGRNAATKGYVNVLTNVKL
notes: TIR–STING antiphage effector of the S. faecium CBASS operon; also called WT; source: E. coli BL21-CodonPlus(DE3)-RIL, purified (Ni-NTA, Superdex 200 SEC)
The stoichiometry N is a count of units in the complex or per binding partner. On to B1, for which the “stoichiometry N” value is 4 to 6 units (dimers) in data set [3] and about 85 dimer copies in data set [4].

B2: SfSTING D110A (enzyme, Sphingobacterium faecium, UniProt A0A2T5Y4G4 1-323, looked up)
chain: MKKRIFIGSSSEQLTILNEIVDLLGDDVECIPWTDAFALNKSGLDSLIKQTRLADYSILIATKDDLTKQRGESLTKPRDNVVFEFGLFLGAAGPEKCYLIAEEDTDLPTALDGITVAKFTRNSGQYNSLDKIVESIRTHLVKIAEMSQLGLLPSTALAIGYYNSFIKRVCEEIHGSECVELEGKKIKVKSFRVDVVIPETLDDNGVGNFTTLYNKRYGLSKATTCTNPALLGTRGFPFHFKVDPPDANQESPVDIHLLDIPSTLSTIVESLKLYLPSNQVGQDFDMDYLEMRELENFAKVLKYLIGRNAATKGYVNVLTNVKL
notes: S. faecium TIR–STING (SfSTING) with a substitution of the TIR DD-loop residue that completes the active site of the dimer mate; Mutant of m1; same vector and purification; also called intradimeric contact mutant; source: E. coli BL21-CodonPlus(DE3)-RIL, purified (Ni-NTA, Superdex 200 SEC)
As for B2, in data set [5], the binding result is reported as “binds”.

B3: SfSTING ΔA36–K41 (TIR BB loop replaced by a glycine-serine linker, D35-GSGG-S42) (enzyme, Sphingobacterium faecium, UniProt A0A2T5Y4G4 1-323, looked up)
chain: MKKRIFIGSSSEQLTILNEIVDLLGDDVECIPWTDGSGGSGLDSLIKQTRLADYSILIATKDDLTKQRGESLTKPRDNVVFEFGLFLGAAGPEKCYLIAEEDTDLPTDLDGITVAKFTRNSGQYNSLDKIVESIRTHLVKIAEMSQLGLLPSTALAIGYYNSFIKRVCEEIHGSECVELEGKKIKVKSFRVDVVIPETLDDNGVGNFTTLYNKRYGLSKATTCTNPALLGTRGFPFHFKVDPPDANQESPVDIHLLDIPSTLSTIVESLKLYLPSNQVGQDFDMDYLEMRELENFAKVLKYLIGRNAATKGYVNVLTNVKL
notes: S. faecium TIR–STING (SfSTING) in which residues A36–K41 of the TIR BB loop are replaced by GSGG (D35-GSGG-S42); Mutant of m1; also called TIR-to-TIR cross-filament contact mutant; SfSTING TIR mutant; source: E. coli BL21-CodonPlus(DE3)-RIL, purified (Ni-NTA, Superdex 200 SEC)
On to B3, for which the binding result in data set [5] is reported as “binds”.
